Experimental findings from publication PMC4125376 are described below.

For orientation: Km means the concentration of substrate that gives half-maximal velocity.

In one data set the test system is C[C@H](O)C(=O)O. Briefly: purified protein. As to conditions: NAD+. Format: biochemical, Babesia microti.
Data set [1] has as its system NC(=O)c1ccc[n+]([C@@H]2O[C@H](COP(=O)([O-])OP(=O)(O)OC[C@H]3O[C@@H](n4cnc5c(N)ncnc54)[C@H](O)[C@@H]3O)[C@@H](O)[C@H]2O)c1. As to the kind of experiment: purified protein. As to conditions: varied: cofactor.

Consider “Babesia microti lactate dehydrogenase (BmLDH) (Babesia microti strain RI)”, for which the Km in the data set with C[C@H](O)C(=O)O is listed as 99.96 ± 22.33 mM; in data set [1], 8.76 ± 0.57 mM.
